Source: PMC6334735

Molecular target: TrkA
Assay: in situ PLA, anti-Trk plus anti-total IRS1
Conditions: sites Y608

Chain of IRS1 (P35570 whole entry, looked up, change not shown): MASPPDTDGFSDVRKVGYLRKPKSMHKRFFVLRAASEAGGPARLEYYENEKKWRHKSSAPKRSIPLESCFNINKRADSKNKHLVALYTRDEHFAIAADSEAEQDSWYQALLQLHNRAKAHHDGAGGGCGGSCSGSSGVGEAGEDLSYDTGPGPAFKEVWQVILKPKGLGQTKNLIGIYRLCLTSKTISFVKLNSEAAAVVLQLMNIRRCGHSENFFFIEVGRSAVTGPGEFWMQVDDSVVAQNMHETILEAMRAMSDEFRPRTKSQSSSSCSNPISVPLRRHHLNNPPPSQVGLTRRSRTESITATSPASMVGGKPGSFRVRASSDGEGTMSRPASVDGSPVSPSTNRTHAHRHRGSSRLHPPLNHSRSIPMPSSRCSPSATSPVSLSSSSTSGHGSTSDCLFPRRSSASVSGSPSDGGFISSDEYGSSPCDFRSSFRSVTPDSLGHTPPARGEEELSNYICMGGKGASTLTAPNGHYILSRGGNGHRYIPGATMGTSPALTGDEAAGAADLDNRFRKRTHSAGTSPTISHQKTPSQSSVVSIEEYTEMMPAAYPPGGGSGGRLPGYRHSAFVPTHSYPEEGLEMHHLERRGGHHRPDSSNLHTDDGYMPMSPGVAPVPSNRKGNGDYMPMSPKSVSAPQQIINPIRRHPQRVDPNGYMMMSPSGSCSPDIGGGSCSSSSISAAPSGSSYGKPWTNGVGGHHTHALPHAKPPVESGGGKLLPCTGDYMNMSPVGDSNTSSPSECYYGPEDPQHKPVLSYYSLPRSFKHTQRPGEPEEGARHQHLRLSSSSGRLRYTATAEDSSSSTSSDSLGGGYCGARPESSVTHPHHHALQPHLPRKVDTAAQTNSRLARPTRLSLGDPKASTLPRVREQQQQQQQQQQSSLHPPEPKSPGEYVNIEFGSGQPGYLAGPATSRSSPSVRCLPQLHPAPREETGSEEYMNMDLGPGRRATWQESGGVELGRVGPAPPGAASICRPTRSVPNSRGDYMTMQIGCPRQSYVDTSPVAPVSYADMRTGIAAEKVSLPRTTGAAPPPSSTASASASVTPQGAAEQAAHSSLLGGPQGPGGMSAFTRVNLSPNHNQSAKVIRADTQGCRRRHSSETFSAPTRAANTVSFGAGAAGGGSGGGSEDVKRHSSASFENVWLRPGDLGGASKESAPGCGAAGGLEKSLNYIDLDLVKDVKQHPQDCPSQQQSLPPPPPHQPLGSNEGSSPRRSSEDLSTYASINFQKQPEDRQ

Substance | other: PLA dots per neuron (reference: untreated neurons (CTR)) | other: PLA dots per neuron (reference: NGF-treated neurons)
IRS1 (from UniProt P35570) NGF 100 ng/ml, 30 min | stronger; reference 50.6 ± 5.9 | –
IRS1 (from UniProt P35570) NGF after NT157 preincubation (10 µM, 2 h) | – | weaker; reference 121.5 ± 16.4
